Starred links: 1 amine or outer side, 2 acyl side, 3 side chain; linkers in the order of their positions; H or OH if unused. Positions of bridges follow the written chain, without caps; N, C: chain ends. Non-standard residues stand in square brackets, D forms with d. dPhe(4-NHAc) = 4-acetamido-D-phenylalanine, CC(=O)Nc1ccc(C[C@@H](N[*:1])C(=O)[*:2])cc1; dPhe(4-tBu) = CC(C)(C)c1ccc(C[C@@H](N)C(=O)O)cc1; dPhe(4-Br) = N[C@H](Cc1ccc(Br)cc1)C(=O)O; dPhe(4-I) = N[C@H](Cc1ccc(I)cc1)C(=O)O; d2Nal = N[C@H](Cc1ccc2ccccc2c1)C(=O)O; d(αMeF) = C[C@@](N)(Cc1ccccc1)C(=O)O; NMeR = CN[C@@H](CCCNC(=N)N)C(=O)O; dNMeF = CN[C@H](Cc1ccccc1)C(=O)O; Tic = O=C(O)[C@@H]1Cc2ccccc2CN1; dTic = O=C(O)[C@H]1Cc2ccccc2CN1; Cit = NC(=O)NCCC[C@H](N)C(=O)O; Nle = CCCC[C@H](N)C(=O)O; Aib = CC(C)(N)C(=O)O
B1: CTX-1233 (peptide)
peptide: Ac-R[Nle]CH[dPhe(4-I)]R[dW]C-NH2
modifications: disulfide 3-8
SMILES: CCCC[C@H](NC(=O)[C@H](CCCNC(=N)N)NC(C)=O)C(=O)N[C@H]1CSSC[C@@H](C(N)=O)NC(=O)[C@@H](Cc2c[nH]c3ccccc23)NC(=O)[C@H](CCCNC(=N)N)NC(=O)[C@@H](Cc2ccc(I)cc2)NC(=O)[C@H](Cc2c[nH]cn2)NC1=O
B2: CTX-1237 (peptide)
peptide: Ac-RC[dA]R[dY]R[dW]C-NH2
modifications: disulfide 2-8
SMILES: CC(=O)N[C@@H](CCCNC(=N)N)C(=O)N[C@H]1CSSC[C@@H](C(N)=O)NC(=O)[C@@H](Cc2c[nH]c3ccccc23)NC(=O)[C@H](CCCNC(=N)N)NC(=O)[C@@H](Cc2ccc(O)cc2)NC(=O)[C@H](CCCNC(=N)N)NC(=O)[C@@H](C)NC1=O
B3: CTX-1240 (peptide)
peptide: Ac-RC[dA]R[d(αMeF)]R[dW]C-NH2
modifications: disulfide 2-8
SMILES: CC(=O)N[C@@H](CCCNC(=N)N)C(=O)N[C@H]1CSSC[C@@H](C(N)=O)NC(=O)[C@@H](Cc2c[nH]c3ccccc23)NC(=O)[C@H](CCCNC(=N)N)NC(=O)[C@@](C)(Cc2ccccc2)NC(=O)[C@H](CCCNC(=N)N)NC(=O)[C@@H](C)NC1=O
B4: CTX-1242 (peptide)
peptide: Ac-RC[dA]R[dPhe(4-tBu)]R[dW]C-NH2
modifications: disulfide 2-8
SMILES: CC(=O)N[C@@H](CCCNC(=N)N)C(=O)N[C@H]1CSSC[C@@H](C(N)=O)NC(=O)[C@@H](Cc2c[nH]c3ccccc23)NC(=O)[C@H](CCCNC(=N)N)NC(=O)[C@@H](Cc2ccc(C(C)(C)C)cc2)NC(=O)[C@H](CCCNC(=N)N)NC(=O)[C@@H](C)NC1=O
B5: CTX-1248 (peptide)
peptide: Ac-RC[dA][NMeR][dPhe(4-Br)]R[dW]C-NH2
modifications: disulfide 2-8
SMILES: CC(=O)N[C@@H](CCCNC(=N)N)C(=O)N[C@H]1CSSC[C@@H](C(N)=O)NC(=O)[C@@H](Cc2c[nH]c3ccccc23)NC(=O)[C@H](CCCNC(=N)N)NC(=O)[C@@H](Cc2ccc(Br)cc2)NC(=O)[C@H](CCCNC(=N)N)N(C)C(=O)[C@@H](C)NC1=O
B6: CTX-1249 (peptide)
peptide: Ac-RC[dA]P[dPhe(4-Br)]R[dW]C-NH2
modifications: disulfide 2-8
SMILES: CC(=O)N[C@@H](CCCNC(=N)N)C(=O)N[C@H]1CSSC[C@@H](C(N)=O)NC(=O)[C@@H](Cc2c[nH]c3ccccc23)NC(=O)[C@H](CCCNC(=N)N)NC(=O)[C@@H](Cc2ccc(Br)cc2)NC(=O)[C@@H]2CCCN2C(=O)[C@@H](C)NC1=O
B7: CTX-1253 (peptide)
peptide: Ac-RC[dA]R[dPhe(4-Br)][Cit][dW]C-NH2
modifications: disulfide 2-8
SMILES: CC(=O)N[C@@H](CCCNC(=N)N)C(=O)N[C@H]1CSSC[C@@H](C(N)=O)NC(=O)[C@@H](Cc2c[nH]c3ccccc23)NC(=O)[C@H](CCCNC(N)=O)NC(=O)[C@@H](Cc2ccc(Br)cc2)NC(=O)[C@H](CCCNC(=N)N)NC(=O)[C@@H](C)NC1=O
B8: CTX-1254 (peptide)
peptide: Ac-RC[dA]R[dPhe(4-Br)]R[d2Nal]C-NH2
modifications: disulfide 2-8
SMILES: CC(=O)N[C@@H](CCCNC(=N)N)C(=O)N[C@H]1CSSC[C@@H](C(N)=O)NC(=O)[C@@H](Cc2ccc3ccccc3c2)NC(=O)[C@H](CCCNC(=N)N)NC(=O)[C@@H](Cc2ccc(Br)cc2)NC(=O)[C@H](CCCNC(=N)N)NC(=O)[C@@H](C)NC1=O
B9: CTX-1255 (peptide)
peptide: Ac-RC[dA]R[dPhe(4-Br)]R[dF]C-NH2
modifications: disulfide 2-8
SMILES: CC(=O)N[C@@H](CCCNC(=N)N)C(=O)N[C@H]1CSSC[C@@H](C(N)=O)NC(=O)[C@@H](Cc2ccccc2)NC(=O)[C@H](CCCNC(=N)N)NC(=O)[C@@H](Cc2ccc(Br)cc2)NC(=O)[C@H](CCCNC(=N)N)NC(=O)[C@@H](C)NC1=O
B10: CTX-1260 (peptide)
peptide: Ac-RC[dA]R[dPhe(4-Br)]R[dA]C-NH2
modifications: disulfide 2-8
SMILES: CC(=O)N[C@@H](CCCNC(=N)N)C(=O)N[C@H]1CSSC[C@@H](C(N)=O)NC(=O)[C@@H](C)NC(=O)[C@H](CCCNC(=N)N)NC(=O)[C@@H](Cc2ccc(Br)cc2)NC(=O)[C@H](CCCNC(=N)N)NC(=O)[C@@H](C)NC1=O
B11: CTX-1272 (peptide)
peptide: Ac-RC[dA]R[dNMeF]R[dW]C-NH2
modifications: disulfide 2-8
SMILES: CC(=O)N[C@@H](CCCNC(=N)N)C(=O)N[C@H]1CSSC[C@@H](C(N)=O)NC(=O)[C@@H](Cc2c[nH]c3ccccc23)NC(=O)[C@H](CCCNC(=N)N)NC(=O)[C@@H](Cc2ccccc2)N(C)C(=O)[C@H](CCCNC(=N)N)NC(=O)[C@@H](C)NC1=O
B12: CTX-1274 (peptide)
peptide: Ac-RC[dA]R[dW]RWC-NH2
modifications: disulfide 2-8
SMILES: CC(=O)N[C@@H](CCCNC(=N)N)C(=O)N[C@H]1CSSC[C@@H](C(N)=O)NC(=O)[C@H](Cc2c[nH]c3ccccc23)NC(=O)[C@H](CCCNC(=N)N)NC(=O)[C@@H](Cc2c[nH]c3ccccc23)NC(=O)[C@H](CCCNC(=N)N)NC(=O)[C@@H](C)NC1=O

Assays:
Test in all cases: cell-based or functional assay
human MC3R = human MC3R (human, UniProt P41968 1-323)
Sequence of human MC3R (P41968 whole entry): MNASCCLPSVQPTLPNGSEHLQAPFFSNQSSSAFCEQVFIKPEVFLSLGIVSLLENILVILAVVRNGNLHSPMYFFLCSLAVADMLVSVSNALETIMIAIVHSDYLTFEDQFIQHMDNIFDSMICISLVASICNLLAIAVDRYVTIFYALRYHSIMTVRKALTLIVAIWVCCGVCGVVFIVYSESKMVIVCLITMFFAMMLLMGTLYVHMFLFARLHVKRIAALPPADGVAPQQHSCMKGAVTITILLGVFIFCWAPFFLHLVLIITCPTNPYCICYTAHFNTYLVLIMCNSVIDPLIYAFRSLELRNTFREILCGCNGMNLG

human MC4R receptor [1] = biological target: T1, human MC4R receptor (human, UniProt P32245 1-332)
T1 sequence (P32245 whole entry): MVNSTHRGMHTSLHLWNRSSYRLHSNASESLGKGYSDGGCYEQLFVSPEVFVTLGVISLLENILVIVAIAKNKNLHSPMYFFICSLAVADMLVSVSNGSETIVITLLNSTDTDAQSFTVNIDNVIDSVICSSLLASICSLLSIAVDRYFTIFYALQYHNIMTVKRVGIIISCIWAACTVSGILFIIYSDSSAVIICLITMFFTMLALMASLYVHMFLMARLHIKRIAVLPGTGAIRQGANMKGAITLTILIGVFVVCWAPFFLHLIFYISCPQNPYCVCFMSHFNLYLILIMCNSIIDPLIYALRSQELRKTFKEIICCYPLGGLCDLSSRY

human MC4R receptor [2] = biological target: T1, human MC4R receptor; remark: listed apart in the source

Binder	% max activation (human MC3R) [%]	cAMP EC50 (human MC3R) [nM]	% max activation (human MC4R receptor [1]) [%]	cAMP EC50 (human MC4R receptor [1]) [nM]	MC4R selectivity vs MC1R (human MC4R receptor [2])	MC4R selectivity vs MC3R (human MC4R receptor [2])
B1	22	4.1	16	2.2	0.26	1.88
B2	19	79	61	998	0.24	0.08
B3	27	31	81	76	0.46	0.41
B4	2.8	2.2	5.8	26	0.64	0.08
Ac-RC[dA]R[dPhe(4-NHAc)]R[dW]C-NH2 (disulfide 2-8) [CTX-1245]	6.3	73	34	4450	0.08	0.02
B5	18	2.8	47	2	1.31	1.36
B6	1.9	6.1	22	14	5.08	0.45
Ac-RC[dA][dR][dPhe(4-Br)]R[dW]C-NH2 (disulfide 2-8) [CTX-1250]	10	2090	8.7	185	1.06	11
Ac-RC[dA]RF[NMeR][dW]C-NH2 (disulfide 2-8; not fully specified (residue 5)) [CTX-1251]	30	93	31	25	0.11	3.73
Ac-RC[dA]R[dPhe(4-Br)][dR][dW]C-NH2 (disulfide 2-8) [CTX-1252]	1.1	57	4.4	885	0.04	0.06
B7	9.2	4	58	7.6	0.57	0.53
B8	5.5	9.2	22	4.2	0.26	2.19
B9	28	7.5	60	31	0.05	0.24
Ac-RC[dA]R[dPhe(4-Br)]R[dTic]C-NH2 (disulfide 2-8) [CTX-1256]	17	592	29	7240	0.003	0.08
Ac-RC[dA]R[dPhe(4-Br)]R[Tic]C-NH2 (disulfide 2-8) [CTX-1259]	27	146	70	1250	0.01	0.12
B10	13	239	38	4930	0.01	0.05
Ac-RC[Aib]R[dF][Cit][dW]C-NH2 (disulfide 2-8) [CTX-1271]	16	117	95	72	2.9	1.63
B11	0.9	671	5.3	750	0.21	0.9
Ac-RC[dA]R[dTic]R[dW]C-NH2 (disulfide 2-8) [CTX-1273]	3.7	4780	32	7430	0.05	0.64
B12	5.4	164	77	1400	0.19	0.12

From US20240391954A1, “MC4R AGONIST PEPTIDES” (The Regents of the University of Michigan, priority 2021, published 2024)
